Assay results: patent US20150086555A1

Assays:
Conditions in all cases: remark: other sources report otherwise
[1] = biological target: T1, recombinant soluble homotrimeric HA of A/Japan/305/57 (H2N2) (Influenza A virus A/Japan/305/1957(H2N2)); test: HA microarray, BCC supernatant
[2] = biological target: T2, recombinant soluble homotrimeric HA of A/Solomon Islands/3/06 (H1N1) (Influenza A virus A/Solomon Islands/3/2006(H1N1)); test: HA microarray, BCC supernatant
[3] = biological target: T3, recombinant soluble homotrimeric HA of A/duck/Yangzhou/02/05 (H8N4) (Influenza A virus A/duck/Yangzhou/02/2005(H8N4)); test: HA microarray, BCC supernatant
[4] = biological target: T4, recombinant soluble homotrimeric HA of A/chicken/Vietnam/NCVD-016/08 (H5N1) (Influenza A virus A/chicken/Vietnam/NCVD-016/2008(H5N1)); test: HA microarray, BCC supernatant
[5] = biological target: T5, recombinant soluble homotrimeric HA of A/Netherlands/219/03 (H7N7) (Influenza A virus A/Netherlands/219/03(H7N7)); test: HA microarray, BCC supernatant
[6] = biological target: T6, recombinant soluble homotrimeric HA of A/swine/Ontario/01911-2/99 (H4N6) (Influenza A virus A/Swine/Ontario/01911-2/99 (H4N6)); test: HA microarray, BCC supernatant
[7] = biological target: T7, recombinant soluble homotrimeric HA of A/California/4/09 (H1N1) (Influenza A virus A/California/04/2009(H1N1)); test: HA microarray, BCC supernatant
[8] = biological target: T8, recombinant soluble homotrimeric HA of A/northern shoveler/California/HKWF115/07 (H6) (Influenza A virus A/northern shoveler/California/HKWF115/2007(H6N1)); test: HA microarray, BCC supernatant
[9] = biological target: T1, recombinant soluble homotrimeric HA of …; test: trimeric HA microarray, transfection supernatant set 5
[10] = biological target: T2, recombinant soluble homotrimeric HA of …; test: as above
[11] = biological target: recombinant soluble homotrimeric HA of A/Egypt/3300-NAMRU3/08 (H5N1) (Influenza A virus A/Egypt/3300-NAMRU3/2008(H5N1)); test: as above
[12] = biological target: T3, recombinant soluble homotrimeric HA of …; test: as above
[13] = biological target: T4, recombinant soluble homotrimeric HA of …; test: as above
[14] = biological target: T5, recombinant soluble homotrimeric HA of …; test: as above
[15] = biological target: T6, recombinant soluble homotrimeric HA of …; test: as above
[16] = biological target: T7, recombinant soluble homotrimeric HA of …; test: as above
[17] = biological target: T8, recombinant soluble homotrimeric HA of …; test: as above
[18] = biological target: recombinant soluble homotrimeric HA of A/South Carolina/1/18 (H1N1) (Influenza A virus A/South Carolina/1/18 (H1N1)); test: as above
[19] = biological target: recombinant homotrimeric HA A/swine/Ontario/01911-2/99 H4N6 (Influenza A virus A/Swine/Ontario/01911-2/99 (H4N6)); test: protein microarray, purified IgG, trimeric HA
[20] = biological target: recombinant homotrimeric HA A/Solomon Islands/3/06 H1N1 (Influenza A virus A/Solomon Islands/3/2006(H1N1)); test: protein microarray, purified IgG, trimeric HA
[21] = biological target: recombinant homotrimeric HA A/Hong Kong/2108/03 H9N2 (Influenza A virus A/HK/2108/2003(H9N2)); test: protein microarray, purified IgG, trimeric HA
[22] = biological target: recombinant homotrimeric HA A/chicken/Vietnam/NCVD-016/08 H5N1 (Influenza A virus A/chicken/Vietnam/NCVD-016/2008(H5N1)); test: protein microarray, purified IgG, trimeric HA
[23] = biological target: recombinant homotrimeric HA A/Netherlands/219/03 H7N7 (Influenza A virus A/Netherlands/219/03(H7N7)); test: protein microarray, purified IgG, trimeric HA
[24] = biological target: recombinant homotrimeric HA A/Japan/305/57 H2N2 (Influenza A virus A/Japan/305/1957(H2N2)); test: protein microarray, purified IgG, trimeric HA
[25] = biological target: recombinant homotrimeric HA A/Hong Kong/1073/99 H9N2 (Influenza A virus A/Hong Kong/1073/99 (H9N2)); test: protein microarray, purified IgG, trimeric HA
[26] = biological target: recombinant homotrimeric HA A/northern shoveler/California/HKWF115/07 H6N4 (Influenza A virus A/northern shoveler/California/HKWF115/2007(H6N1)); test: protein microarray, purified IgG, trimeric HA
[27] = biological target: recombinant homotrimeric HA A/Egypt/3300-NAMRU3/08 H5N1 (Influenza A virus A/Egypt/3300-NAMRU3/2008(H5N1)); test: protein microarray, purified IgG, trimeric HA
[28] = biological target: recombinant homotrimeric HA A/duck/Yangzhou/02/05 H8N4 (Influenza A virus A/duck/Yangzhou/02/2005(H8N4)); test: protein microarray, purified IgG, trimeric HA
[29] = biological target: recombinant homotrimeric HA A/South Carolina/1/18 H1N1 (Influenza A virus A/South Carolina/1/18 (H1N1)); test: protein microarray, purified IgG, trimeric HA
[30] = biological target: recombinant homotrimeric HA A/California/4/09 H1N1 (Influenza A virus A/California/04/2009(H1N1)); test: protein microarray, purified IgG, trimeric HA
[31] = biological target: T9, recombinant soluble homotrimeric HA of A/Vietnam/1203/04 (H5N1) (Influenza A virus A/VietNam/1203/2004(H5N1)); test: HA microarray, BCC supernatant
[32] = biological target: T9, recombinant soluble homotrimeric HA of …; test: trimeric HA microarray, transfection supernatant set 5
[33] = biological target: recombinant soluble homotrimeric HA of A/Hong Kong/156/97 (H5N1) (Influenza A virus A/Hong Kong/156/97 (H5N1)); test: as above
[34] = biological target: recombinant soluble homotrimeric HA of A/Indonesia/5/05 (H5N1) (Influenza A virus A/Indonesia/5/2005(H5N1)); test: as above
[35] = biological target: recombinant soluble homotrimeric HA of A/Anhui/1/05 (H5N1) (Influenza A virus A/Anhui/1/2005(H5N1)); test: as above
[36] = biological target: recombinant homotrimeric HA A/Anhui/1/05 H5N1 (Influenza A virus A/Anhui/1/2005(H5N1)); test: protein microarray, purified IgG, trimeric HA
[37] = biological target: recombinant homotrimeric HA A/Hong Kong/156/97 H5N1 (Influenza A virus A/Hong Kong/156/97 (H5N1)); test: protein microarray, purified IgG, trimeric HA
[38] = biological target: recombinant homotrimeric HA A/Indonesia/5/05 H5N1 (Influenza A virus A/Indonesia/5/2005(H5N1)); test: protein microarray, purified IgG, trimeric HA
[39] = biological target: recombinant homotrimeric HA A/Vietnam/1203/04 H5N1 (Influenza A virus A/VietNam/1203/2004(H5N1)); test: protein microarray, purified IgG, trimeric HA

B1: TCN-544 (5082_A19) (antibody, V domains shown)
VH: QVQLQESGPGLVKPSETLSLTCTVSRGSIGHYFWSWIRQPPGKGLEWIGYISYSGSTKYNPSLRSRVTISVDTSKNQFSLNLNSVTATDTALYYCAREDYDILTGAGPGMEVWGQGTTVTVSS
VL: QSMLTQPPSASGTPGQRVTISCSGSSSNIGSNTVNWFKHLPGTAPKLLIYRNDLRPSGVPDRFSGSKSGTSASLAISGLQSEDEADYYCATWDDSLNGFYVFGTGTKVTVL
Trimeric HA Binding: RLU [1]: 187 RLU
Trimeric HA Binding: RLU [2]: 179 RLU
Trimeric HA Binding: RLU [3]: 464 RLU
Trimeric HA Binding: RLU [4]: 272 RLU
Trimeric HA Binding: RLU [5]: 1620 RLU
Trimeric HA Binding: RLU [6]: 316 RLU
Trimeric HA Binding: RLU [7]: 281 RLU
Trimeric HA Binding: RLU [8]: 1690 RLU
Trimeric HA Binding: RLU [9]: 1000 RLU
Trimeric HA Binding: RLU [10]: 997 RLU
Trimeric HA Binding: RLU [11]: 19400 RLU
Trimeric HA Binding: RLU [12]: 9440 RLU
Trimeric HA Binding: RLU [13]: 3070 RLU
Trimeric HA Binding: RLU [14]: 4650 RLU
Trimeric HA Binding: RLU [15]: 2390 RLU
Trimeric HA Binding: RLU [16]: 706 RLU
Trimeric HA Binding: RLU [17]: 2920 RLU
Trimeric HA Binding: RLU [18]: 1330 RLU
Trimeric HA Binding: RLU [19]: 154 RLU
Trimeric HA Binding: RLU [20]: 1010 RLU
Trimeric HA Binding: RLU [21]: 145 RLU
Trimeric HA Binding: RLU [22]: 402 RLU
Trimeric HA Binding: RLU [23]: 203 RLU
Trimeric HA Binding: RLU [24]: 450 RLU
Trimeric HA Binding: RLU [25]: 534 RLU
Trimeric HA Binding: RLU [26]: 82 RLU
Trimeric HA Binding: RLU [27]: 2140 RLU
Trimeric HA Binding: RLU [28]: 380 RLU
Trimeric HA Binding: RLU [29]: 148 RLU
Trimeric HA Binding: RLU [30]: 285 RLU

B2: TCN-542 (5079_A16) (antibody, V domains shown)
VH: QVQLQESGPGLVKPSQTLSLTCTVSGGSISSGNYYWNWVRQHPGKGLEWIGYIYYRGSTFYNPSLKSRVTISIDTSKNQFSLRLSSVTAADTAVYYCAKDTRSSLDNYQYGMDVWGQGTTVTVSS
VL: QTVVTQEPSLTVSPGGTVTLTCASSTGAVTSSYFPNWFQQKPGQAPRPLIYSTTIRHSWTPARFSGSLLGGKAALTLSGVQPEDEADYYCLLYSGGDPVAFGGGTKLTVL
Trimeric HA Binding: RLU [1]: 142 RLU
Trimeric HA Binding: RLU [31]: 306 RLU
Trimeric HA Binding: RLU [3]: 332 RLU
Trimeric HA Binding: RLU [5]: 909 RLU
Trimeric HA Binding: RLU [6]: 350 RLU
Trimeric HA Binding: RLU [32]: 29500 RLU
Trimeric HA Binding: RLU [11]: 14800 RLU
Trimeric HA Binding: RLU [12]: 11600 RLU
Trimeric HA Binding: RLU [13]: 5460 RLU
Trimeric HA Binding: RLU [33]: 786 RLU
Trimeric HA Binding: RLU [15]: 14300 RLU
Trimeric HA Binding: RLU [34]: 1760 RLU
Trimeric HA Binding: RLU [35]: 7410 RLU
Trimeric HA Binding: RLU [17]: 2370 RLU
Trimeric HA Binding: RLU [18]: 1120 RLU
Trimeric HA Binding: RLU [36]: 10500 RLU
Trimeric HA Binding: RLU [37]: 894 RLU
Trimeric HA Binding: RLU [24]: 502 RLU
Trimeric HA Binding: RLU [25]: 588 RLU
Trimeric HA Binding: RLU [38]: 108 RLU
Trimeric HA Binding: RLU [39]: 1060 RLU
Trimeric HA Binding: RLU [27]: 730 RLU
Trimeric HA Binding: RLU [28]: 182 RLU
Trimeric HA Binding: RLU [29]: 117 RLU
Trimeric HA Binding: RLU [30]: 238 RLU
